Results: article PMC9942304, “Identification of RimR2 as a positive pathway-specific regulator of rimocidin biosynthesis in Streptomyces rimosus M527”

T1: RimR2 (Streptomyces rimosus M527, UniProt A0ABY3YSD1 1-918)
T1 sequence: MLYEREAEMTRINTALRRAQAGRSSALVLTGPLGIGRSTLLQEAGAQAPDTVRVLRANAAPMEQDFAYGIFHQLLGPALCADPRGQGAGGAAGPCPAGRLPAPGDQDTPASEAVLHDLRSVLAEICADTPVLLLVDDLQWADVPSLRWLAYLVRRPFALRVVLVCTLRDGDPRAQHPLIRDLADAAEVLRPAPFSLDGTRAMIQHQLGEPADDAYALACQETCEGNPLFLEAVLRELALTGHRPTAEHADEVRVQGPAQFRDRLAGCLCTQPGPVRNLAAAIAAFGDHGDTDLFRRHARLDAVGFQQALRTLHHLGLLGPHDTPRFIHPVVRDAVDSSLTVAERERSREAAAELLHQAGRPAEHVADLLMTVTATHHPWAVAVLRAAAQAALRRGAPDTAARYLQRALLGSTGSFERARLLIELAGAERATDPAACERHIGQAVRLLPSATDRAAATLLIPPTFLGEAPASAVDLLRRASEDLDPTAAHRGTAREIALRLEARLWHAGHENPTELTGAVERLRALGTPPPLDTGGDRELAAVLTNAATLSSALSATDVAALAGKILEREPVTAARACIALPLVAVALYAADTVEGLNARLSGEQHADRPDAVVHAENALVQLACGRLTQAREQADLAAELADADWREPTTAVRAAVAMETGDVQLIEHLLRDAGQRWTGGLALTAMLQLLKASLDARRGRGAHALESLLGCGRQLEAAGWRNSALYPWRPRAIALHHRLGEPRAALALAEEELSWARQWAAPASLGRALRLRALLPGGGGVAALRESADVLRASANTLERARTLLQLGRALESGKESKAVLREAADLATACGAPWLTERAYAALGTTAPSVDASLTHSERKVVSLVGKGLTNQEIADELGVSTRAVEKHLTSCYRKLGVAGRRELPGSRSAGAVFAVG

B1: rimC promoter probe (dsDNA)
DNA 1: CCCCATCCTGATCACAAAAGACTAAGGGAAATGTTAAAGGTACGGTGTGC
DNA 2: GCACACCGTACCTTTAACATTTCCCTTAGTCTTTTGTGATCAGGATGGGG
B2: rimR2 promoter probe (dsDNA)
DNA 1: TACCTACAAGAAATTGCGTATCACCTCACGCAAGGAACTCCGCGCGCGGA
DNA 2: TCCGCGCGCGGAGTTCCTTGCGTGAGGTGATACGCAATTTCTTGTAGGTA
B3: rimA promoter probe (dsDNA)
DNA 1: ATCACCGTGCACGAGGGCTGACGCCCGCCCGGGCAGGAGCTCGTGTCCGA
DNA 2: TCGGACACGAGCTCCTGCCCGGGCGGGCGTCAGCCCTCGTGCACGGTGAT

Tests used:
RimR2 [1] = target: T1, RimR2; assay: EMSA; competed by 100-fold unlabeled probe; LightShift Chemiluminescent EMSA Kit (Thermo); 0.04 pmol/ul biotin probe, 10 ug RimR2; buffer, salt, pH and temperature not stated; conditions: protein: recombinant; tags: His6 (pET32a, EcoRV/BamHI); blunt
RimR2 [2] = target: T1, RimR2; assay: EMSA; LightShift Chemiluminescent EMSA Kit (Thermo); 0.04 pmol/ul biotin probe, 10 ug RimR2; buffer, salt, pH and temperature not stated; conditions: protein: recombinant; tags: His6 (pET32a, EcoRV/BamHI); blunt

Binder | binding result (RimR2 [1]) | binding result (RimR2 [2])
B1 | binds | 
B2 |  | binds
B3 | binds | 
